Reference: the supplement of paper PMC10724198
± gives the standard deviation of the averaged measurements.

System: Saccharomyces cerevisiae
Assay: protein stability index of tFT-peptide fusion (C-terminal peptide) (PSI (0-1 scale)); higher = more stable (slower turnover)
Conditions: genetic background: wild type; temperature: 30 C
Description: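 Multiplexed protein stability (MPS) profiling in S. cerevisiae. Random 12-aa peptides (tFT-X12 library) are fused to the C-terminus of a sfGFP-mCherry tandem fluorescent timer, after mCherry and a GGGS linker. Cells are FACS-sorted into 8 mCherry/sfGFP bins and deep-sequenced. The protein stability index (PSI) is the read-weighted bin average, scaled from 0 (unstable) to 1 (stable). Only peptides with >10 reads are reported; cells were grown at 30 °C in SC-His with glucose.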
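Note: PSI is a weighted mean of sequencing reads over stability bins, variants kept only with over 10 reads, mCherry proximal and sfGFP distal, peptide attached via GGGS linker.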

Going from LLGRWVAGSRGG to LLTGKTVPKDST, the protein stability index falls from 0.746 ± 0.017 to 0.705 ± 0.016.

First: CGYAAGGELLQD
Second: PAPPLPLTPPPL
The protein stability index of the first is lower: 0.705 ± 0.012 for the first, 0.788 ± 0.014 for the second.

PVPPRPHGFPHL and KLKIKREKKKRK are within error of each other in protein stability index: 0.678 ± 0.023 for the first, 0.668 ± 0.019 for the second.

Going from RVSVYTFVSLSN to HPAPNPGFHFDR, the protein stability index rises from 0.619 ± 0.035 to 0.733 ± 0.065.

PPRSPPPPPTLP and GFVFSRGLERPL are within error of each other in protein stability index: 0.6578 ± 0.001 for the first, 0.675 ± 0.062 for the second.

SGLRLQLLVGHT and KKVKNQGLILRW are within error of each other in protein stability index: 0.632 ± 0.013 for the first, 0.673 ± 0.035 for the second.

PAHPGRPPILGS and ASRSRFMREQMV are within error of each other in protein stability index: 0.597 ± 0.036 for the first, 0.567 ± 0.027 for the second.

LSAQNNTGIVKT and PYPPSSLPLQPA are within error of each other in protein stability index: 0.623 ± 0.0084 for the first, 0.654 ± 0.025 for the second.

First: TVILQRNPKIIV
Second: APPPAPPLHPPS
The protein stability index of the first is lower: 0.652 ± 0.058 for the first, 0.739 ± 0.022 for the second.

PPTLRRGSTFYH and VVWGLGAGRMVW are within error of each other in protein stability index: 0.6788 ± 0.0016 for the first, 0.656 ± 0.076 for the second.

GGGEWGLGVRPR and EKHNNNRYKQYL are the same in protein stability index: 0.725 ± 0.008 for the first, 0.7255 ± 0.0052 for the second.

First: PFSSPDLLRCPH
Second: RPQHSPSVLVSY
The protein stability index of the first is higher: 0.752 ± 0.024 for the first, 0.5884 ± 0.005 for the second.

Compared with GFWGSRTSGSIP, PPPHTHPPTPLL is lower in protein stability index: 0.7335 ± 0.007 for the first, 0.689 ± 0.011 for the second.

SKLTSRPLSKVP and LRPFSPSPPRPF are within error of each other in protein stability index: 0.718 ± 0.048 for the first, 0.705 ± 0.013 for the second.

LNTVRKSKDKAI and PLCSPALHGPPP are within error of each other in protein stability index: 0.706 ± 0.19 for the first, 0.736 ± 0.033 for the second.

DLSDPGHSLSIL and EARMGGGRCGTG are within error of each other in protein stability index: 0.68 ± 0.055 for the first, 0.684 ± 0.008 for the second.

Going from CSVSACTVSLCC to NAFSHSASRVIS, the protein stability index rises from 0.5849 ± 0.0017 to 0.682 ± 0.016.

AGPPSPPLHPVG and KNKKKNSRKKQQ are within error of each other in protein stability index: 0.696 ± 0.026 for the first, 0.702 ± 0.0083 for the second.

LAPSWVGYVSGH and SLAAPFPSLPNF are within error of each other in protein stability index: 0.7 ± 0.069 for the first, 0.652 ± 0.036 for the second.

First: AQPCISGLTCRY
Second: ERWSHNKEDDRN
The protein stability index of the first is higher: 0.729 ± 0.0096 for the first, 0.6577 ± 0.0048 for the second.

PPPLLPPRAPSP and VRGGLVGRSVGC are within error of each other in protein stability index: 0.6294 ± 0.0031 for the first, 0.559 ± 0.08 for the second.

Going from ARLRSTPVVLPT to FLHVSLSFSCSL, the protein stability index falls from 0.668 ± 0.024 to 0.541 ± 0.0063.

EFFAPDVVALMR and LPTKPVPIPRHY are within error of each other in protein stability index: 0.692 ± 0.17 for the first, 0.693 ± 0.052 for the second.

SHRTHPAAPHAP and LVQCSAISARRF are within error of each other in protein stability index: 0.738 ± 0.056 for the first, 0.735 ± 0.026 for the second.

Going from PRPGGQGHPNAG to PNPPNSSNPPSP, the protein stability index falls from 0.742 ± 0.027 to 0.7013 ± 0.0031.

YPRNPSLSTSAS and PPSPPAPPAPPH are within error of each other in protein stability index: 0.63 ± 0.16 for the first, 0.692 ± 0.038 for the second.

AAGEGSAPTRDR and NNSLKTTMVATK are within error of each other in protein stability index: 0.672 ± 0.028 for the first, 0.58 ± 0.065 for the second.

LESARDICAFAD and RWGPGRSGSRGA are within error of each other in protein stability index: 0.6754 ± 0.005 for the first, 0.652 ± 0.022 for the second.

AAHSQNPPPPSS and SGTRIQFRLGMS are within error of each other in protein stability index: 0.697 ± 0.031 for the first, 0.723 ± 0.064 for the second.

YRVGCCCFFALT and GKKRTGRGESAK are within error of each other in protein stability index: 0.618 ± 0.016 for the first, 0.693 ± 0.062 for the second.

GRWSDSSVVTLG and GSSAPSYTIGPE are within error of each other in protein stability index: 0.679 ± 0.018 for the first, 0.682 ± 0.017 for the second.

Compared with LKLTFFCRQNIF, FVLLGVRGVAGW is higher in protein stability index: 0.574 ± 0.0098 for the first, 0.709 ± 0.02 for the second.

Compared with APSRTTERILLL, VPSVCPFLSVLL is lower in protein stability index: 0.714 ± 0.029 for the first, 0.647 ± 0.035 for the second.

GGGRGLRCNGLG and CSVRGDVANYAF are within error of each other in protein stability index: 0.738 ± 0.1 for the first, 0.6457 ± 0.0028 for the second.

GGGNEDCLRGGY and PPAPPHALPPGP are within error of each other in protein stability index: 0.651 ± 0.056 for the first, 0.671 ± 0.033 for the second.

Going from GLRHCLLHRTCQ to PVWDGTAKLSVI, the protein stability index rises from 0.599 ± 0.0079 to 0.65 ± 0.026.

FRGTVYRGTRPR and VLRIIMQCVFVR are within error of each other in protein stability index: 0.622 ± 0.072 for the first, 0.549 ± 0.0064 for the second.

Compared with DGHSAAAFCVRG, RMGWTRCRGGYG is lower in protein stability index: 0.748 ± 0.1 for the first, 0.5865 ± 0.0044 for the second.

WQMRNGTSRSSL and RLNQSKSTKYSE are within error of each other in protein stability index: 0.631 ± 0.012 for the first, 0.651 ± 0.012 for the second.

PPPPSPPPIPSP and RASPVSSFSPPS are within error of each other in protein stability index: 0.706 ± 0.04 for the first, 0.679 ± 0.041 for the second.

With VGLSVRFPVANH the protein stability index was 0.673 ± 0.037.
